We go through 18 molecules from patent US6551840B2, “Method of screening TGF-β-inhibiting substances” (Chugai Seiyaku Kabushiki Kaisha, priority 1997, dated 2003).

T1: TAK1 (Mus musculus, UniProt Q62073)
T1 construct: A gene encoding a full-length TAK1 was prepared by digesting yeast 2-hybrid expression plasmid pBTMHu11F; expressed in transfected cells; host or cells: Saccharomyces cerevisiae strain L40
T1 sequence (Q62073 1-579): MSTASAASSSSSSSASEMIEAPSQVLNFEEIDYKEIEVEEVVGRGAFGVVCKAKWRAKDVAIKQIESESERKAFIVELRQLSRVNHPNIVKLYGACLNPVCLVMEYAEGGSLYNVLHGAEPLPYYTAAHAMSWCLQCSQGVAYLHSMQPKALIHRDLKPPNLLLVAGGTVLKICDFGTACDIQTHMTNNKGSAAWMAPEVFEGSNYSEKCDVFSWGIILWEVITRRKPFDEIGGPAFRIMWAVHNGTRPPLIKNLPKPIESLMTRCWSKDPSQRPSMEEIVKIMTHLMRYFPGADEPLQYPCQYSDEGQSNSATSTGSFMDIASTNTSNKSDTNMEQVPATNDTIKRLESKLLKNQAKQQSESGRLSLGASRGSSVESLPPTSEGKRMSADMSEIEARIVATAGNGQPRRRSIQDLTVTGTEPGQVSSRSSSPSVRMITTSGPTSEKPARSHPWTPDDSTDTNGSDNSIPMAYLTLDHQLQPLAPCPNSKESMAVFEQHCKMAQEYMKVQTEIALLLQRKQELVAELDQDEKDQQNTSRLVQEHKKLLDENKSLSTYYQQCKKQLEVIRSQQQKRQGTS

B1: TAB1C68: 68 amino acid residues of the carboxy terminal of the TAB1 polypeptide (pGAD-TAB1) (protein)
chain: QSPTLTLQSTNTHTQSSSSSSDGGLFRSRPAHSLPPGEDGRVEPYVDFAEFYRLWSVDHGEQSVVTAP
modifications: GAL4 activation domain fusion

The target of the first data set is T1, TAK1. Kind of data set: Yeast 2-hybrid method, β-galactosidase activity: binding ability of TAB1 deletion mutants to TAK1. The class given is cell-based. The following applies: yeast L40 co-transformed with TAK1 2-hybrid expression plasmid; GAL4 activation domain fusion; measured three times. The text has this: In order to evaluate each TAB1 deletion mutant constructed in Example 10, a yeast 2-hybrid expression vector of each TAB1 deletion mutant and a yeast 2-hybrid expression vector pBTMHu11F (Shibuya H. et al., Science (1996) 272, 1179-1182) that expresses TAK1 were co-transformed into a yeast strain L40 (Shibuya H. et al., Science (1996) 272, 1179-1182). […] each of a TAB1 deletion mutant expression vector (pGAD-TAB1C45 to pGAD-TAB1C45 in Working Example 10-1 and pGAD-TAB1C45D14 to pGAD-TAB1C45D25 in Working Example 10-2) or pGAD-TAB1 (Shibuya H. et al., Science (1996) 272, 1179-1182) as a control and pBTMHu11F were introduced into the L40 strain according to the instructions (MATCHMAKER™ Two-Hybrid System, manufactured by CLONTECH), and were incubated on a selection agar medium SD-ULW (glucose 20 g, agar (manufactured by DIFCO) 20 g, Yeast Nitrogen Base w/o amino acids (manufactured by DIFCO) 6.7 g, adenine 100 mg, isoleucine 30 mg, valine 150 mg, arginine 20 mg, lysine 30 mg, methionine 20 mg, phenylalanine 50 mg, threonine 200 mg, tyrosine 30 mg, histidine 100 mg-per liter of medium) at 30° C. for 3 days to obtain each transformant.
In order to evaluate the binding ability to TAK1 of each TAB1 deletion mutant constructed in Example 10, activity was determined by the yeast 2-hybrid method. Since a reporter gene lacZ having the LexA binding sequence upstream thereof has been integrated on the chromosome of the yeast strain L40, the binding ability to TAK1 of each TAB1 deletion mutant can be evaluated in relative terms by measuring the activity of β-galactosidase that is a reporter gene product.
The β-galactosidase activity of each transformant obtained in Example 11 was determined according to the instructions (MATCHMAKER™ Two-Hybrid System, manufactured by CLONTECH), and the activity was calculated using Miller Unit (Miller, J. H. (1972) Experiments in Molecular Genetics, Cold Spring Harbor Laboratory, Cold Spring Harbor, N.Y.).
In FIG. 11, the β-galactosidase activity of each TAB1 deletion mutant and the yeast L40 transformed by the yeast 2-hybrid expression plasmid of TAK1 was expressed in terms of Miller Units. Measurement was carried out three times and the mean+/−SD is shown. The value indicates a ratio based on the β-galactosidase activity of the yeast L40 transformed by TAB1C68 and the yeast 2-hybrid expression plasmid of TAK1.
The β-galactosidase activity of each transformant obtained in Example 11 was determined according to the instructions (MATCHMAKER™ Two-Hybrid System, manufactured by CLONTECH), and the activity was calculated using Miller Units (Miller, J. H. (1972) Experiments in Molecular Genetics, Cold Spring Harbor Laboratory, Cold Spring Harbor, N.Y.).
In FIG. 12, the β-galactosidase activity of the yeast L40 transformed by each TAB1 deletion mutant and the yeast 2-hybrid expression plasmid of TAK1 was expressed in terms of Miller Units. Measurement was carried out three times and the mean+/−SD is shown. The value indicates a ratio based on the β-galactosidase activity of the yeast L40 transformed by the TAB1C68 and yeast 2-hybrid expression plasmid of TAK1.
First, binding between the 68, 45, 40, 35, 30 and 25 amino acid regions of the carboxy terminal of TAB1 and TAK1 was evaluated by the yeast 2-hybrid method mentioned above.
Regarding “TAB1C20: polypeptide comprising 20 amino acids of the carboxy terminal of TAB1 (AEFYRLWSVDHGEQSVVTAP; left off: large carriers)”, the “specific activity: β-galactosidase activity as ratio to TAB1C68” value (shortened to “specific activity … as ratio to TAB1C68”) is given as 0.03.
Regarding “TAB1C21: polypeptide comprising 21 amino acids of the carboxy terminal of TAB1 (FAEFYRLWSVDHGEQSVVTAP; left off: large carriers)”, the “specific activity … as ratio to TAB1C68” value was found to be 0.03.
Turning to “TAB1C22: polypeptide comprising 22 amino acids of the carboxy terminal of TAB1 (DFAEFYRLWSVDHGEQSVVTAP; left off: large carriers)”, the “specific activity … as ratio to TAB1C68” value was 0.03.
Still for that read-out and setting: the result for “TAB1C23: polypeptide comprising 23 amino acids of the carboxy terminal of TAB1 (VDFAEFYRLWSVDHGEQSVVTAP; left off: large carriers)” reads 0.05.
For the molecule “TAB1C24: polypeptide comprising 24 amino acids of the carboxy terminal of TAB1 (YVDFAEFYRLWSVDHGEQSVVTAP; left off: large carriers)”, the “specific activity … as ratio to TAB1C68” value is 0.35.
For “TAB1C45 Δ19: lacks 19 amino acids from the carboxy terminal of the 45 amino acid carboxy terminal portion of TAB1 (GLFRSRPAHSLPPGEDGRVEPYVDFA; UniProt Q15750 460-485, looked up, fragment)”, the “specific activity … as ratio to TAB1C68” value was 0.13.
On the same count and under the same terms, the result for “TAB1C45 Δ20: lacks 20 amino acids from the carboxy terminal of the 45 amino acid carboxy terminal portion of TAB1 (GLFRSRPAHSLPPGEDGRVEPYVDF; UniProt Q15750 460-484, looked up, fragment)” reads 0.11.
Regarding “TAB1C45 Δ21: lacks 21 amino acids from the carboxy terminal of the 45 amino acid carboxy terminal portion of TAB1 (GLFRSRPAHSLPPGEDGRVEPYVD; UniProt Q15750 460-483, looked up, fragment)”, the “specific activity … as ratio to TAB1C68” value stood at 0.01.
Still for that read-out and setting: the result for “TAB1C45 Δ22: lacks 22 amino acids from the carboxy terminal of the 45 amino acid carboxy terminal portion of TAB1 (GLFRSRPAHSLPPGEDGRVEPYV; UniProt Q15750 460-482, looked up, fragment)” reads 0.02; that for “TAB1C45 Δ23: lacks 23 amino acids from the carboxy terminal of the 45 amino acid carboxy terminal portion of TAB1 (GLFRSRPAHSLPPGEDGRVEPY; UniProt Q15750 460-481, looked up, fragment)”, 0.00; that for “TAB1C45 Δ24: lacks 24 amino acids from the carboxy terminal of the 45 amino acid carboxy terminal portion of TAB1 (GLFRSRPAHSLPPGEDGRVEP; UniProt Q15750 460-480, looked up, fragment)”, 0.02.
On to “TAB1C45 Δ25: lacks 25 amino acids from the carboxy terminal of the 45 amino acid carboxy terminal portion of TAB1 (GLFRSRPAHSLPPGEDGRVE; UniProt Q15750 460-479, looked up, fragment)”, for which the “specific activity … as ratio to TAB1C68” value worked out at 0.01.

The test system of a further data set is TAK1. Kind of data set: Growth of yeast SY1984-P on plate without histidine: ability of TAB1 deletion mutants to activate TAK1. The following applies: growth of yeast SY1984-P with pNV11-HU11 on SC-His plate, 30° C. Type of data set: cell-based. An excerpt: The region of TAB1 required to induce the kinase activity after binding to TAK1 was identified using TAB1 deletion mutants.
Expression vectors for the 40, 35 and 30 amino acid regions (FIG. 14) in the carboxy terminal of TAB1 were constructed as described below. Thus, genes encoding 40, 35 and 30 amino acid regions respectively in the carboxy terminal of TAB1 were amplified by the PCR method as described above, digested with restriction enzymes XhoI and EcoRI, and inserted to the GAL4 transcription activated domain expression vector pGAD10 to construct pGAD-TAB1C40, pGAD-TAB1C35 and pGAD-TAB1C30, respectively. Furthermore, expression vectors for the TAB1 deletion mutants (FIG. 14) comprising 68, 45 and 25 amino acid regions in the carboxy terminal of TAB1 used were pGAD-TAB1, pGAD-TAB1C45 and pGAD-TAB1C25.
Subsequently, it was investigated whether each TAB1 deletion mutant can induce the kinase activity of TAK1 using the method described in Japanese Unexamined Patent Publication (Kokai) 9(1997)-163990. Thus, the above TAB1 deletion mutant expression vector and TAK1 expression vector pNV11-HU11 (Yamaguchi, K. et al., Science (1995) 270, 2008-2011) were introduced into Saccharomyces cereviceae SY1984-P strain (his3Δ, stellΔ, FUS1p::HIS3, STE7^P368) to obtain deletion mutants. […] These transformants were plated onto a SC-His (glucose 20 g, agar (manufactured by DIFCO) 20 g, Yeast Nitrogen Base w/o amino acids (manufactured by DIFCO) 6.7 g, adenine 100 mg, isoleucine 30 mg, valine 150 mg, arginine 20 mg, lysine 30 mg, methionine 20 mg, phenylalanine 50 mg, threonine 200 mg, tyrosine 30 mg per liter of medium) plate containing no histidine, incubated at 30° C., and the growth of yeast transformed with each expression vector was confirmed in order to evaluate the ability of each TAB1deletion mutant to activate TAK1.
In the case of “TAB1C25: polypeptide comprising 25 amino acids of the carboxy terminal of TAB1 (PYVDFAEFYRLWSVDHGEQSVVTAP; left off: large carriers)”, the “ability to activate TAK1” value was “not”.
The same measure, in the same setting: under “TAB1C30: 30 amino acid region in the carboxy terminal of TAB1 (DGRVEPYVDFAEFYRLWSVDHGEQSVVTAP; left off: large carriers)” stands “observed”; under “TAB1C35: 35 amino acid region in the carboxy terminal of TAB1 (LPPGEDGRVEPYVDFAEFYRLWSVDHGEQSVVTAP; left off: large carriers)”, “observed”; under “TAB1C40: 40 amino acid region in the carboxy terminal of TAB1 (RPAHSLPPGEDGRVEPYVDFAEFYRLWSVDHGEQSVVTAP; left off: large carriers)”, “observed”.
As to “TAB1C45: polypeptide comprising 45 amino acids of the carboxy terminal of TAB1 (GLFRSRPAHSLPPGEDGRVEPYVDFAEFYRLWSVDHGEQSVVTAP; left off: large carriers)”, the “ability to activate TAK1” value is on record as “observed”.
Still for that read-out and setting: the result for B1 reads “observed”.
